# Where no end group is shown, it is not given here. Tds = not defined here
# B1: TMEM59 peptide 268–280 with decreased Y268-E272 distance (YE) (peptide, UniProt Q9BXS4 268-280, looked up)
# peptide: Tds-YEKLSIYGDL
# modifications: reading uncertain
# notes: TMEM59 residues 268-280 with the native residues between Y268 and E272 deleted; only the changed stretch is printed; also called YE (Y268-E272); source: synthetic peptide on microarray, ordered from JPT (Germany)
# B2: TMEM59 peptide (residues 268–280), wild type (peptide, UniProt Q9BXS4 268-280, looked up)
# peptide: Tds-YVPSEKLSIYGDL
# modifications: reading uncertain
# notes: TMEM59 intracellular domain, residues 268-280; also called active TMEM59 peptide; source: synthetic peptide on microarray, ordered from JPT (Germany)
# B3: TMEM59 peptide 268–280 with decreased E272-Y277 distance (ELY) (peptide, UniProt Q9BXS4 268-280, looked up)
# peptide: Tds-YVPSELYGDL
# modifications: reading uncertain
# notes: TMEM59 residues 268-280 with native residues between E272 and Y277 deleted so that one (L) is left; only the changed stretch is printed; source: synthetic peptide on microarray, ordered from JPT (Germany)
# B4: TMEM59 peptide 268–280 with increased Y268-E272 distance (YVAPAASE) (peptide, UniProt Q9BXS4 268-280, looked up)
# peptide: Tds-YVAPAASEKLSIYGDL
# modifications: reading uncertain
# notes: TMEM59 residues 268-280 with extra alanines between Y268 and E272; only the changed stretch is printed; also called YVAPAASE (Y268-E272); source: synthetic peptide on microarray, ordered from JPT (Germany)
# B5: TMEM59 peptide 268–280 with increased E272-Y277 distance (EKAALASAIY) (peptide, UniProt Q9BXS4 268-280, looked up)
# peptide: Tds-YVPSEKAALASAIYGDL
# modifications: reading uncertain
# notes: TMEM59 residues 268-280 with extra alanines between E272 and Y277; only the changed stretch is printed; source: synthetic peptide on microarray, ordered from JPT (Germany)
# Target: T1, GST-HA-ATG16L1(231–607) (human, UniProt Q676U5 231-607)
# T1 construct: ATG16L1, human, residues 231-607 (results and legend); the methods name the construct 230-607; includes the WD40 domain (WDD, 320-607); Limits differ between results (231-607) and methods (230-607); also called GST-HA-ATG16L1-230-607; recombinant protein that includes the WDD; source: HEK-293T, retrovirally transduced, purified (GSH-agarose, eluted with reduced GSH, concentrated)
# T1 sequence (Q676U5 231-607): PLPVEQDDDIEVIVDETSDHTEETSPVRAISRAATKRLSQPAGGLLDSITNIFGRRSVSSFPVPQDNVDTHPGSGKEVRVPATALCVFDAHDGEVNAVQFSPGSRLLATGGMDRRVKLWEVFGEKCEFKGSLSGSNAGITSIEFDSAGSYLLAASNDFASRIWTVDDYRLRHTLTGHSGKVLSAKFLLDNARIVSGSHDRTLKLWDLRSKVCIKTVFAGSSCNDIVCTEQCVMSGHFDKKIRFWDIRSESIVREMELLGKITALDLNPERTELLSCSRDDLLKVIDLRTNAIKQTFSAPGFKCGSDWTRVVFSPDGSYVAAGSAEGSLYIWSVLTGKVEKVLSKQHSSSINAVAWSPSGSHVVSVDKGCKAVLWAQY
# Experiment: peptide or protein array; peptides immobilised on glass slides through the N-terminal end with a Tds spacer (JPT); GST-HA-ATG16L1 fragment in PBS/0,05% Tween-20 with 5% BSA, 20-800 nM, 2 h at RT plus overnight at 4 °C; detected with anti-HA and anti-GST and Cy5-labelled secondary antibodies; binding normalised to the wild-type peptide
# Settings: both partners purified
row,binding result,Binder
1,binds,B1
2,binds,B2
3,binds,B3
4,binds,B4
5,binds,B5
